doi:10.1101/205575
pKd: −log10 of the molar value.

Assays:
[1] = system: AsCpf1 (Cas12a) (Acidaminococcus sp.?); assay: smFRET titration; conditions: amino-dT in non-target strand, pH 8.0 ([…]) or pH 7.0 ([…]
[2] = system: FnCpf1 (Cas12a); assay: smFRET titration; conditions: amino-dT in non-target strand, pH 8.0 ([…]) or pH 7.0 ([…]

cognate DNA target (nPD=0) with Cy5 guide-RNA
pKd [1]: 10.00
pKd [2]: 9.57
